Assay results as given in publication PMC2120623.

Assays:
Experiment in all cases: two-hybrid
[1] = target: αγα chimera in pGBT9 (two-hybrid GAL4 DNA binding domain fusion) (not stated | bovine) (UniProt P17427)
[2] = target: AP47 in pGBT9 (two-hybrid GAL4 DNA binding domain fusion) (UniProt P35585)
[3] = target: AP50 in pGBT9 (two-hybrid GAL4 DNA binding domain fusion) (UniProt P84092)
Sequence of UniProt P84092 (P84092 whole entry, the tested form may be a part): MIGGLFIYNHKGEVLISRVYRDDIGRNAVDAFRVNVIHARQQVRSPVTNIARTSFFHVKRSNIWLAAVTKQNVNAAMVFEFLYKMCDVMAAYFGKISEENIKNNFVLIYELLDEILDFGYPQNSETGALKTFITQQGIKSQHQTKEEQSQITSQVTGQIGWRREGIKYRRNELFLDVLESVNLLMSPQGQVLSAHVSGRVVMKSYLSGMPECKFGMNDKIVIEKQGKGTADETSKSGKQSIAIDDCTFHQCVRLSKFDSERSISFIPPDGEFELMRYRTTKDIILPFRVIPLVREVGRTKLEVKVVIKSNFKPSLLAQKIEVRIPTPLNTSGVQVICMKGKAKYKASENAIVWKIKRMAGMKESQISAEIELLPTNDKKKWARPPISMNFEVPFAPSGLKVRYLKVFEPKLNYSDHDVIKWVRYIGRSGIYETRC

Sequence of UniProt P17427 (P17427 whole entry, change not shown, the tested form may be a part): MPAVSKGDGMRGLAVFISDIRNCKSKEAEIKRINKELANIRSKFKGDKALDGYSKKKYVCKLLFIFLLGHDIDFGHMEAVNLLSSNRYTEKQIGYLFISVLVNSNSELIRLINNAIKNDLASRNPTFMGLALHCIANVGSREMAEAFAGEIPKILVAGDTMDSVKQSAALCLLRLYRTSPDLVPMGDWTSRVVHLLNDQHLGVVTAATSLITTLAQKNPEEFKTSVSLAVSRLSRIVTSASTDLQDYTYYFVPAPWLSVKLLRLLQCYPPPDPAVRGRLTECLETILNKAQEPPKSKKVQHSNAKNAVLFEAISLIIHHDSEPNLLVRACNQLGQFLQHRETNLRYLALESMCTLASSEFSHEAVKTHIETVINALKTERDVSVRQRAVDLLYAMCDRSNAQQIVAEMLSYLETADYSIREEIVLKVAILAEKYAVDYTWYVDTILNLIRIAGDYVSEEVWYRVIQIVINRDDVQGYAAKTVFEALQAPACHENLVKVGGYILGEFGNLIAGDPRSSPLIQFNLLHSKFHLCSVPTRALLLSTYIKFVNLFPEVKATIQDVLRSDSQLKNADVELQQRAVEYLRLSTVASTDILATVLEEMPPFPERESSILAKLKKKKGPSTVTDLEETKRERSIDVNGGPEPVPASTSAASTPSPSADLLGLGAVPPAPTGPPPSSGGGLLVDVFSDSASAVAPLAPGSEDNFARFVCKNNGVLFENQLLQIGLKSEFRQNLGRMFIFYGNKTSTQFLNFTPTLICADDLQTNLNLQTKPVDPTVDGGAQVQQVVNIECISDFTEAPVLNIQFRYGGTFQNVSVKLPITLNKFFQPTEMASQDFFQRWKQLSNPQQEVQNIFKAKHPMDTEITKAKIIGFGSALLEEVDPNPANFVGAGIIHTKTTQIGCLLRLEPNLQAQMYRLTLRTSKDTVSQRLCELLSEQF
Sequence of UniProt P35585 (P35585 whole entry, the tested form may be a part): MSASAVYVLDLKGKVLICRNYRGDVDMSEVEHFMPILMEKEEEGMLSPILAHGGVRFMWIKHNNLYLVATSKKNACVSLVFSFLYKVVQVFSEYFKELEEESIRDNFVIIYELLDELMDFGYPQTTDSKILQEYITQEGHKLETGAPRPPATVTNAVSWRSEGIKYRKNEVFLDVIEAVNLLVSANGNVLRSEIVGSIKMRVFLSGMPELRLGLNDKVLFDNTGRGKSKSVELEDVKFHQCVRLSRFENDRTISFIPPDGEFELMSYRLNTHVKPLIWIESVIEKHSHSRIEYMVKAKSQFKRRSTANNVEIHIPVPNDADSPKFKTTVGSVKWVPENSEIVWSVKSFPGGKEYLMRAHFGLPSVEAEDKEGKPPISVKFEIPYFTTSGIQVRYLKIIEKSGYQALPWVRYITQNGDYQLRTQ

| Molecule | beta-galactosidase units [1] | beta-galactosidase units [2] | beta-galactosidase units [3] |
| --- | --- | --- | --- |
| beta-adaptin in pGAD424 (two-hybrid activator fusion) (from UniProt P62944 1-937) (natural protein) | 38.6 units | 25.4 units | 102 units |
| beta'-adaptin in pGAD424 (two-hybrid activator fusion) (natural protein) MTDSKYFTTTKKGEIFELKAELNSDKKEKKKEAVKKVIASMTVGKDVSALFPDVVNCMQTDNLELKKLVYLYLMNYAKSQPDMAIMAVNTFVKDCEDPNPLIRALAVRTMGCIRVDKITEYLCEPLRKCLKDEDPYVRKTAAVCVAKLHDINAQLVEDQGFLDTLKDLISDSNPMVVANRVAALSEIAESHPSSNLLDLKAQSINKLLTALNECTEWAQIFILDCLGNYMPKDDREAQSICERVTPRLSHANSAVVLSAVKVLMKFMEMLSKDLDYYATLLKKLAPPLVTLLSAEPEPQYVPLRNINLIVQKRPEILKHEMKVFFVKYNDPIYVKLEKLDIMIRLASQANIAQVLAELKEYATEVDVDFVRKAVRAIGRCAIKVEQSAERCVSTLLDLIQTKVNYVVQEAIVVIKDIFRKYPNKYESVIATLCENLDSLDEPEARAAMIWIVGEYAERIDNADELLESFLDGFHDESTQVQLQLLTAIVKLFLKKPTETQELVQQVLSLATQDSDNPDLRDRGYIYWRLLSTDPVAAKEVVLAEKPLISEETDLIEPTLLDELICYIGTLASVYHKPPNAFVEGGRGVVHKSLPPRTASSESTESPEAAPAGAPASDQPDVIPAQGDLLGDLLNLDLGPPVSGPPLAASSVQMGAVDLLGGGLDSLMGDEPEGIGDSNFGAPPASVAAAAPARLGAPVSSGLSDLFDLTSGVGTLSGSYVAPKAVWLPAMKAKGLEISGTFTRQVGSISMDLQLTNKALQVMTDFAIQFNRNSFGLAPAAPLQVHAPLSPNQTVEISLPLNTVGSVMKMEPLNNLQVAVKNNIDVFYFSTLYPLHVLFVEDGKMDRQMFLATWKDIPNENEAQFQIRDCPLNTEAASSKLQSSNIFTVAKRTVEGQDMLYQSLKLTNGIWVLAELRIQPGNPSFTLSLKCRAPEVSQHDIQAYETILKN | 22.3 units | – | – |
